The series concerns the molecule itself. In words: SEC; last purification step of TraM on Superdex 200 Increase 10/300 in 20 mM Tris-HCl pH 7.5, 100 mM NaCl. Background: SEC sorts molecules by how far they enter the pores of the column.

B1: TraM (F plasmid) (natural protein, E. coli F plasmid, UniProt P10026 1-127, looked up)
chain: MAKVNLYISNDAYEKINAIIEKRRQEGAREKDVSFSATASMLLELGLRVHEAQMERKESAFNQTEFNKLLLECVVKTQSSVAKILGIESLSPHVSGNSKFEYANMVEDIREKVSSEMERFFPKNDDE
notes: TraM accessory protein of the F plasmid; synthetic traM gene in the NcoI and HindIII sites of pET28a; In the relaxosome only an AlphaFold model was docked into low-resolution density; also called TraM tetramer; source: E. coli C41 (DE3), purified (ammonium sulphate, HiTrap Heparin, resource Q, HiTrap Blue, Superdex 200 SEC)
As to B1, the binding result is “binds”.

The values are drawn from article PMC12117103, “Cryo-EM Structure of the relaxosome, a complex essential for bacterial mating and the spread of antibiotic resistance genes” (Nature Communications, 2024).
